Target: StrepHA-SGFP2 (control)
Test: co-IP; co-IP/HiBiT assay: SGFP2-fused proteins immunoprecipitated with anti-GFP pAb from HEK293 or HEK293 ALG-2KO lysates (with or without co-expressed FLAG-ALG-2); HKM, 1% Nonidet P-40, 10 mM NEM, 10 μM CaCl2; co-precipitated HiBiTHA-SARAF read by lytic HiBiT assay with LgBiT, normalised by …

B1: full-length HiBiTHA-SARAF (WT) (natural protein)
chain: WNDPDRMLLRDVKALTLHYDRYTTSRRLDPIPQLKCVGGTAGCDSYTPKVIQCQNKGWDGYDVQWECKTDLDIAYKFGKTVVSCEGYESSEDQYVLRGSCGLEYNLDYTELGLQKLKESGKQHGFASFSDYYYKWSSADSCNMSGLITIVVLLGIAFVVYKLFLSDGQYSPPPYSEYPPFSHRYQRFTNSAGPPPPGFKSEFTGPQNTGHGATSGFGSAFTGQQGYENSGPGFWTGLGTGGILGYLFGSNRAATPFSDSWYYPSYPPSYPGTWNRAYSPLHGGSGSYSVCSNSDTKTRTASGYGGTRRR
- relative interaction activity (WT expressed as 100%): < 0.3%

Reference: publication PMC7504102
